Measurements published in article PMC11997821.

What was measured:
[1] = target: BsaXI S subunit (476-residue specificity subunit of R.M.BsaXI) (Bacillus stearothermophilus); assay: single-particle EM, 2D classification of particles (negative stain and cryo-EM); DNA-free and DNA-bound BsaXI particles, twice selected
[2] = target: BsaXI S subunit (476-residue specificity subunit of R.M.BsaXI) (Bacillus stearothermophilus); assay: SEC; Superdex75 column in NEB Diluent B; pooled, separately expressed RM and S subunits after chitin, DEAE, heparin and Source columns

stoichiometry N (RM subunits per S subunit) [1]: 2 | stoichiometry N (RM subunits per S subunit) [2]: 2
Substance: BsaXI RM subunit (916-residue RM fusion subunit of the Type IIB restriction-modification enzyme R.M.BsaXI)
